According to patent US20240327884A1, “ATP-PRT VARIANT WITH REDUCED FEEDBACK INHIBITION BY HISTIDINE, AND HISTIDINE-PRODUCING STRAIN EXPRESSING SAME” (priority 2020, published 2024):

Biological target: T1, ATP phosphoribosyltransferase (Escherichia coli, UniProt P60757, E271K/H232T/R250H/S288P/T252L)
T1 construct: made in house; supernatant of sonicated cells
Format: biochemical, E. coli
Details: comparison of hisG_WT, hisG_SDM4, hisG_SDM7
Method: Each strain was cultured under conditions of 30° C. and 180 rpm. When the OD600 reached 0.6, ATP-PRT expression was induced with 1 mM IPTG (final concentration) and additional culture was performed for about 4 hours. The cells obtained after culturing were sonicated and centrifuged. The obtained supernatants were used for evaluation of ATP phosphoribosyltransferase activity. […] The protein in each supernatant was quantified to match the concentration, and the enzyme activity was measured after mixing the reactants according to the reaction composition shown in Table 8 below.
The activity was measured at 30° C. at a UV wavelength of 290 nm at 2 minute intervals for 30 minutes.

B1: hisG_SDM7: ATP-PRT variant containing H232T, R250H, T252L, E271K and S288P mutations (protein)
chain: MTDNTRLRIAMQKSGRLSDDSRELLARCGIKINLHTQRLIAMAENMPIDILRVRDDDIPGLVMDGVVDLGIIGENVLEEELLNRRAQGEDPRYFTLRRLDFGGCRLSLATPVDEAWDGPLSLNGKRIATSYPHLLKRYLDQKGISFKSCLLNGSVEVAPRAGLADAICDLVSTGATLEANGLREVEVIYRSKACLIQRDGEMEESKQQLIDKLLTRIQGVIQARESKYIMMTAPTERLDEVIALLPGAEHPLILPLAGDQQRVAMHMVSSKTLFWETMEKLKALGASPILVLPIEKMME
modifications: hisG_SDM7
notes: ATP-PRT variant containing H232T, R250H, T252L, E271K and S288P mutations
Resistance to activity inhibition by histidine: best resistance
